Experiments:
mTORC1 = experiment: Phosphoprotein immunoblots of LAM-621 cells overexpressing CIB2, mTORC1 targets; assay type: cell-based, human; conditions: LAM-621 cells overexpressing increasing amounts of CIB2
Rheb [1] = experiment: Co-IP of tdTomato-CIB2 with HA-GST-Rheb and Rheb variants; assay type: binding; conditions: co-IP assay
Protocol: (§1) FIG. 3. […] Note the stronger interaction between CIB2 and Rheb S20N variant as compared to Q64L variant (GDP vs GTP mimetic, respectively). c, CIB2 preferentially interacts with GDP-loaded Rheb is further confirmed by co-IP experiments of HA-GST-Rheb immobilized on […] and loaded with either GDP or GTPγS, followed by incubation with tdTomato-CIB2 lysate. d, Proposed model of CIB2 function in retinal sensory cells. […] Loss of CIB2 results in reduced autophagy and exacerbated mTORC1 signaling, thus leading to RPE pathology and secondary PR dysfunction. e, f Immunoblots from RPE/choroid lysates from dry AMD or control age-matched donors indicate reduced CIB2 expression, overactive mTORC1 and reduced autophagy, quantified in panel f. Unpaired two-tailed 1 test was used to determine statistical significance. p value of <0.05 (*), <0.01 (**), and <0.001 (***). Please note that one control sample (ψ) is outliner and is highly variant from the rest, Re-quantification, omitting the highly variant control sample, is shown in FIG. 15. g.
We tested the essentiality of nucleotide binding state of Rheb using co-IP assays. […] Next, we used the Q64L and […] Rheb variants, which mimic the GTP- and GDP-bound state, respectively. […]

GDP-bound Rheb = biological target: T1, GDP-bound Rheb (Homo sapiens, UniProt Q15382); experiment: Co-IP with bead-immobilized HA-GST-Rheb loaded with GDP or GTPγS; assay type: binding; conditions: glutathione bead-immobilized HA-GST-Rheb (WT) loaded with GDP or non-cleavable GTPγS, tdTomato-CIB2 lysate added
T1 construct: host or cells: HEK293
T1 sequence (Q15382 whole entry): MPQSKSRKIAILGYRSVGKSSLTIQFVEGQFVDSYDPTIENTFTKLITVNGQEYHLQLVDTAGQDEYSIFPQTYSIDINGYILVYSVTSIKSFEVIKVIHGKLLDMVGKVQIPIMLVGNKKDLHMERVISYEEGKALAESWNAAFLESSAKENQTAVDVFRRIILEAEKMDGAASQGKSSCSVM
Protocol: as §1
We tested the essentiality of nucleotide binding state of Rheb using co-IP assays. […] Next, we used the Q64L and S20L Rheb variants, which mimic the GTP- and GDP-bound state, respectively.
For GTPγS of GDP loading experiments, cleared lysates of HEK293 cells over-expressing HA-GST-Rheb were prepared as described in buffer lacking MgCl2. […]

Raptor [2] = biological target: T2, Raptor (Homo sapiens, UniProt Q8N122); experiment: NanoSPD (nanoTRAP) interaction assay in COS-7 cells, Raptor; assay type: binding; design: HA (N); mCherry (N); conditions: filopodia tip co-accumulation
T2 sequence (Q8N122 whole entry): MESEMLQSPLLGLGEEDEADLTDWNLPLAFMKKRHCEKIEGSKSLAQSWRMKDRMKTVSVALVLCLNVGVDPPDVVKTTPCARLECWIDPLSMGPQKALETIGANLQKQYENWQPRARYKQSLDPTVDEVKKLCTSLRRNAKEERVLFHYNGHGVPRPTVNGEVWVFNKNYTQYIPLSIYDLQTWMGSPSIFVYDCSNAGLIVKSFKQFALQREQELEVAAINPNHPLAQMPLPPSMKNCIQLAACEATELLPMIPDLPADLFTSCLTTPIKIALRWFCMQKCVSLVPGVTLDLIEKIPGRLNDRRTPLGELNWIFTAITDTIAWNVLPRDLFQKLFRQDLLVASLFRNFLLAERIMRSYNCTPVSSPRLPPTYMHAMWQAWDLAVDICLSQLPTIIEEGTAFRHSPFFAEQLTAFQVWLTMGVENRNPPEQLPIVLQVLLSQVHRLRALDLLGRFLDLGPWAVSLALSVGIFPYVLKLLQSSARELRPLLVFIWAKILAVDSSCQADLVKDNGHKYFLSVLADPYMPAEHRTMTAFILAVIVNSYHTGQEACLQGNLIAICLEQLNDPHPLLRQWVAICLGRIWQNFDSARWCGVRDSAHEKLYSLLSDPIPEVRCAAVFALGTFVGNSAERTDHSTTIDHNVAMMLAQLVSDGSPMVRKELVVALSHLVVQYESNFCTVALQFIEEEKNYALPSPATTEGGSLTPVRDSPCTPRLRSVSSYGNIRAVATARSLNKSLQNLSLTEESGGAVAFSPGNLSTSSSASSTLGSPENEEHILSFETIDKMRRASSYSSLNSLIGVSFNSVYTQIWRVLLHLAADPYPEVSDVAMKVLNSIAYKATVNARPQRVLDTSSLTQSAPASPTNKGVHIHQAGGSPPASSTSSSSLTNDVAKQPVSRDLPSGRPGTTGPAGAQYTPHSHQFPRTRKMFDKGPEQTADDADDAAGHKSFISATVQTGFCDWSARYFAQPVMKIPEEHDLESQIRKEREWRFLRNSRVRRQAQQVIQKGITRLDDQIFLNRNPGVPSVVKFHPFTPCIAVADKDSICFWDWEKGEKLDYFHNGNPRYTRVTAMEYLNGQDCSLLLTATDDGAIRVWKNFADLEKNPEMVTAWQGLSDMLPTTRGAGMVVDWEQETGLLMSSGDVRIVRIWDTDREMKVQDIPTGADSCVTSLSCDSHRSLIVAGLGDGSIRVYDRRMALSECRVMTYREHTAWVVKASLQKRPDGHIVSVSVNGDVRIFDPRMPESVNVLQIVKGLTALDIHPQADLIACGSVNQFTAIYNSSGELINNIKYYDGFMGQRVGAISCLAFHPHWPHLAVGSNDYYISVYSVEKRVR
Text: (§2) FIG. 14. […] Arrowheads indicate filopodia tip accumulation of hCIB2-eGFP, * indicates no accumulation of indicted constructs in the red channel. c. Representative confocal images (top panel) showing CIB2 (green) interaction with Rheb (red) and Raptor (red) using NanoTRAP assay. […] Arrowheads indicate filopodia tip accumulation of indicated constructs, * indicates no accumulation of indicted construct in the red or far-red channel. Scale bar: 10 μm. d. Quantification for nanoTRAP assay for images shown above. *** p<0.001 by one-way ANOVA. e, Co-IP experiments show interaction between Raptor and CIB2.
(§3) To reveal the molecular mechanism of CIB2-mediated mTORC1 modulation, we focused on the TSC-Rheb-mTORC1 axis. We performed an interaction screen of specific proteins including TSC1, TSC2, mTORC1-specific subunit Raptor, mTOR kinase, and Rheb. We used a recently-published quantitative interaction assay known as nanoscale pulldown 2.0 (NanoSPD), in which eGFP-nanobody tag fused to the myosin-HMM domain (nanoTRAP) preferentially migrates to the filopodia (Bird et al., Molecular Biology of the Cell 28, 463-475 (2017)). CIB2-eGFP (bait) migrated efficiently to filopodia in COS-7 cells only in the presence of the nanoTRAP. […] Many downstream and upstream targets of mTORC1 regulate its activity via binding to the mTORC1-specific subunit Raptor. […]

Rheb [3] = biological target: Rheb (Homo sapiens, UniProt Q15382); experiment: NanoSPD (nanoTRAP) interaction assay in COS-7 cells, Rheb; assay type: binding; design: host or cells: COS-7; conditions: filopodia tip co-accumulation
Chain of Rheb (Homo sapiens, UniProt Q15382) (Q15382 whole entry): as the sequence (Q15382 whole entry) above
Text: as §2, §3

Raptor [4] = biological target: T2, Raptor; experiment: Co-immunoprecipitation of Raptor and CIB2; assay type: binding; design: HA (N); mCherry (N); host or cells: HEK293
Text: as §2, §3

B1: CIB2: calcium and integrin binding protein 2, over-expressed in cells from plasmid constructs; SEQ ID NO:1 (human), SEQ ID NO:2 (mouse) (protein)
chain: MGNKQTIFTEEQLDNYQDCTFFNKKDILKLHARFYELAPNLVPMDYRKSPIVHVPMSLIIQMPELRENPFKERIVEAFSEDGEGNLTFNDFVDMFSVLCESAPRELKANYAFKIYDFNTDNFICKEDLEMTLARLTKSELEEDEVVLVCDKVIEEADLDGDGKLGFADFEDMIAKAPDFLSTFHIRI
modifications: left off: large carriers
Phosphorylated 4E-BP-1 (mTORC1): decreasing amounts | Phosphorylated ULK1 (mTORC1): decreasing amounts | Binding preference among Rheb-WT, Q64L (GTP mimetic) and S20L (GDP mimetic) variants (Rheb [1]): bound preferentially to the S20L variant | Binding to GDP-bound vs GTP-bound Rheb (GDP-bound Rheb): binds more strongly to GDP-bound Rheb than to GTP-bound Rheb | Interaction with Raptor (NanoSPD) (Raptor [2]): interacts with CIB2 | Interaction with Rheb (NanoSPD) (Rheb [3]): interacts with Rheb | Interaction with Raptor (co-IP) (Raptor [4]): confirmed the interaction

From US12661385B2, “Modulation of mTORCI activity and autophagy via CIB2-RHEB interaction” (University of Maryland, Baltimore, priority 2018, dated 2026)
